Laboratory results as given in PMC11099136, “Structure, mechanism, and evolution of the last step in vitamin C biosynthesis” (Nature Communications, 2024).

Key:
vGalDH = biological target: T1, vGalDH (synthetic construct, UniProt Z9D058OTD2); assay: cytochrome c reduction at […] nm, Michaelis-Menten fit; format: biochemical; settings: 50 μM equine cytochrome c, 50 mM potassium phosphate pH 8, 25 °C
T1 construct: SUMO cleaved for crystals; noncovalent FAD
T1 sequence (Z9D058OTD2 110-619): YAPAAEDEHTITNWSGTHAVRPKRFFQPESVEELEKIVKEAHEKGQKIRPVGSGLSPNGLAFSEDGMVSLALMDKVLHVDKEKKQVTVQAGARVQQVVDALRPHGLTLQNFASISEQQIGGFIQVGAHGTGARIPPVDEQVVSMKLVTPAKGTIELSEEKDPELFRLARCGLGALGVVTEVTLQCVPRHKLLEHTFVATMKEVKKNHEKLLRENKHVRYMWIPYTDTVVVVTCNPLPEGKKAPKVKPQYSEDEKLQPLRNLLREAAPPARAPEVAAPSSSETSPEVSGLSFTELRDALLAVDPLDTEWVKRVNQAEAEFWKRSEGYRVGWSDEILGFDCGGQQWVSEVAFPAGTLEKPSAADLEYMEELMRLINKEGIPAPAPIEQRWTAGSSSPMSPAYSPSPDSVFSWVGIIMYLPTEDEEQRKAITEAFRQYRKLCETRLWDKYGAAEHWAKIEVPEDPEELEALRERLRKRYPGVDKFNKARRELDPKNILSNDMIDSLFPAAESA

[1] = substrate: O=C1O[C@H](CO)[C@@H](O)[C@@H]1O; assay: oxygen consumption (Oxygraph), Michaelis-Menten fit; format: biochemical, synthetic construct; settings: oxygen as co-substrate, 50 mM potassium phosphate pH 8, 25 °C
Experimental: (§1) oxygen consumption (Oxygraph), Michaelis-Menten fit on tGULO | KM values in the sub-millimolar range were measured for mGULO and tGULO | also L-galactono-1,4-lactone (i.e.: GalDH substrate; Fig. 1A) and D-arabino-1,4-lactone (ALO substrate) are effectively oxidized

[2] = substrate: O=C1O[C@H]([C@@H](O)CO)[C@@H](O)[C@@H]1O; assay: as above; format: biochemical, synthetic construct; settings: oxygen as co-substrate, 50 mM potassium phosphate pH 8, 25 °C
Experimental: as §1

[3] = substrate: O=C1O[C@H]([C@@H](O)CO)[C@H](O)[C@@H]1O; assay: as above; format: biochemical, synthetic construct; settings: oxygen as co-substrate, 50 mM potassium phosphate pH 8, 25 °C
Experimental: as §1

[4] = substrate: O=C1O[C@H](CO)[C@@H](O)[C@@H]1O; assay: as above; format: biochemical, synthetic construct; settings: oxygen as co-substrate, 50 mM potassium phosphate pH 8, 25 °C; remark: listed apart in the source
From the text: (§2) oxygen consumption (Oxygraph), Michaelis-Menten fit on mGULO

[5] = substrate: O=C1O[C@H]([C@@H](O)CO)[C@@H](O)[C@@H]1O; assay: as above; format: biochemical, synthetic construct; settings: oxygen as co-substrate, 50 mM potassium phosphate pH 8, 25 °C; remark: listed apart in the source
From the text: as §2

[6] = substrate: O=C1O[C@H]([C@@H](O)CO)[C@H](O)[C@@H]1O; assay: as above; format: biochemical, synthetic construct; settings: oxygen as co-substrate, 50 mM potassium phosphate pH 8, 25 °C; remark: listed apart in the source
From the text: as §2

[7] = substrate: O=C1O[C@H](CO)[C@@H](O)[C@@H]1O; assay: as above; format: biochemical, synthetic construct; settings: oxygen as co-substrate, 50 mM potassium phosphate pH 8, 25 °C; remark: listed apart in the source
From the text: (§3) oxygen consumption (Oxygraph), Michaelis-Menten fit on cGULO

[8] = substrate: O=C1O[C@H]([C@@H](O)CO)[C@@H](O)[C@@H]1O; assay: as above; format: biochemical, synthetic construct; settings: oxygen as co-substrate, 50 mM potassium phosphate pH 8, 25 °C; remark: listed apart in the source
From the text: as §3

[9] = substrate: O=C1O[C@H]([C@@H](O)CO)[C@H](O)[C@@H]1O; assay: as above; format: biochemical, synthetic construct; settings: oxygen as co-substrate, 50 mM potassium phosphate pH 8, 25 °C; remark: listed apart in the source
From the text: as §3

[10] = substrate: O=C1O[C@H](CO)[C@@H](O)[C@@H]1O; assay: as above; format: biochemical, synthetic construct; settings: oxygen as co-substrate, 50 mM potassium phosphate pH 8, 25 °C; remark: listed apart in the source
[11] = substrate: O=C1O[C@H]([C@@H](O)CO)[C@@H](O)[C@@H]1O; assay: as above; format: biochemical, synthetic construct; settings: oxygen as co-substrate, 50 mM potassium phosphate pH 8, 25 °C; remark: listed apart in the source
[12] = substrate: O=C1O[C@H]([C@@H](O)CO)[C@H](O)[C@@H]1O; assay: as above; format: biochemical, synthetic construct; settings: oxygen as co-substrate, 50 mM potassium phosphate pH 8, 25 °C; remark: listed apart in the source

## O=C1O[C@H]([C@@H](O)CO)[C@@H](O)[C@@H]1O [L-galactono-1,4-lactone]
vGalDH
  Km: 16.6 ± 2.6 µM

## O=C1O[C@H]([C@@H](O)CO)[C@H](O)[C@@H]1O [L-gulono-1,4-lactone]
vGalDH
  Km: 2100 ± 300 µM

## O=C1O[C@H](CO)[C@@H](O)[C@@H]1O [D-arabino-1,4-lactone]
vGalDH
  Km: 1100 ± 100 µM

B1: tGULO (synthetic construct) (protein)
chain: MVQGHGGYKFQNWAQTYGCSPELYFQPTSVEEIKEILDLARQRSKRVKVVGGGHSPSDIACTDDFMIHMNKMNKILKVDKEKKQVTVEAGILLSDLNEELSKHGLALSNLGAVSDVAAAGVIGTGTHNTGIQHGILATQVVALTLMTASGEILECSESVNAELFQAARLHLGCLGVILTVTFQCVPAFHLQETQFPSTLKEVLDNLDSHLKKSEYFRFLWFPHTENVSVIYQDRTDKPPSSSANWFWDYAIGYYLLEFLLWISTFLPRLVPWINRFFFWLLYSGKVERVNLSYKVFNYECRFKQHVQDWAIPIEKTKEALLELKAWLESNPKVVAHFPVEVRFARGDDILLSPCYQRDSCYMNIIMYRPYGKDVPRQQYWLAYENIMKKVGGRPHWAKAHTCTRKDFEKMYPGFQKFCSIREKLDPTGMFLNTYLEKVFY
notes: His-SUMO fusion from pBAD in E. coli; membrane-associated, purified in reduced Triton X-100; covalent FAD
[1]
  Km: 9400 ± 900 µM
  kcat: 2.9 ± 0.1 s⁻¹
[2]
  Km: 5400 ± 1200 µM
  kcat: 1.3 ± 0.1 s⁻¹
[3]
  Km: 800 ± 200 µM
  kcat: 7.3 ± 0.5 s⁻¹

B2: mGULO (synthetic construct) (protein)
chain: MVHGHKGVKFQNWAKTYGCSPEMYFQPTSVEEIREVLDLARQQNKRVKVVGGGHSPSDIACTDGFMIHMGKMNRILKVDKEKKQVTVEAGILLADLNVELSKHGLALSNLGAVSDVTAAGVIGTGTHNTGIKHGILATQVVALTLLTASGTILECSESSNAELFQAARVHLGCLGVILTVTFQCVPQFHLQETSFPSTLKEVLDNLDSHLKKSEYFRFLWFPHSENVSVIYQDHTNKPPSSSANWFWDYAIGFYLLEFLLWISTFLPCLVPWINRFFFWLLFTGKVENSNLSYKIFNYECRFKQHVQDWAIPIEKTKEALLELKAMLESNPKVVAHYPVEVRFTRGDDILLSPCFQRDSCYMNIIMYRPYGKDVPRLDYWLAYETIMKKVGGRPHWAKAHTCTRKDFEKMYPAFQKFCAIREKLDPTGMFLNAYLEKVFY
notes: His-SUMO fusion from pBAD in E. coli (tag kept in stopped-flow); membrane-associated, purified in reduced Triton X-100; covalent FAD
[4]
  Km: 3300 ± 400 µM
  kcat: 0.5 ± 0.1 s⁻¹
  kcat/Km: 150 M⁻¹ s⁻¹
[5]
  Km: 1900 ± 200 µM
  kcat: 4.2 ± 0.1 s⁻¹
  kcat/Km: 2200 M⁻¹ s⁻¹
[6]
  Km: 800 ± 100 µM
  kcat: 6.1 ± 0.1 s⁻¹
  kcat/Km: 7600 M⁻¹ s⁻¹

B3: cGULO (synthetic construct) (protein)
chain: MATGMKGYKFTNWAKTYSCQPELYFEPTTTEEIRQILELARQHSKRVKVVGCGHSPSDIACTTDYMISMKKFNKVLEVDKEKCQVTVQAGILLKDLNEELPKHGMALSNLGAVSDITVAGVISTGTHGTGVNYGILATHVVELTLMTASGEILKCSREENKDIFLAALCGLGALGIILTVTIQCEPAFKLHQKQFPCTLDEVLDNLDTHLKSSEHFRFMWFPHTDHVVVFHANRTDKPVQSTSSWFWDYLVGYYLLEFLLWISTFFPSLVPWINRFFFWLLYSQPKERVDRSDKVFNFECLFKQYVTEWAIPREKTAAVLLELKDWLESNPDFHAHFPVEVRFVRADDIYLSPCYQRDSCYINIIMYRPYGKDVPREKYWAAYEDIMMKVGGRPHWAKAHKVTAKDFQKMYPKFEKFCSIREKLDPQGMFLNSYLERVFF
notes: as for B1
[7]
  Km: 48600 ± 24000 µM
  kcat: 0.6 ± 0.1 s⁻¹
  kcat/Km: 12.3 M⁻¹ s⁻¹
[8]
  Km: 11800 ± 1200 µM
  kcat: 3.5 ± 0.3 s⁻¹
  kcat/Km: 300 M⁻¹ s⁻¹
[9]
  Km: 6100 ± 700 µM
  kcat: 3.2 ± 0.1 s⁻¹
  kcat/Km: 520 M⁻¹ s⁻¹

B4: jGULO (synthetic construct) (protein)
chain: MVQGTEGYKFQNWAQTYSCQPELYFEPTSVEEIRQILELARQRSKRVKVVGCGHSPSDIACTDDYMIRMNKMNKILKVDKEKRQVTVEAGILLSDLNEELAKHGLALSNLGAVSDVTVAGVIGTGTHNTGIQHGILATQVVALTLMTASGEILECSESVNKEIFQAARLHLGALGVILTVTFQCEPAFRLHQQQFPSTLTEVLDNLDTHLKKSEYFRFLWFPHTDHVTVFYADRTDKPVQSTSSWFWDYAIGYYLLEFLLWISTFFPRLVPWINRFFFWLLYSAKVERVNRSDKVFNFECLFKQHVSDWAIPIEKTKAALLQLKEWLENNPDVRAHFPVEVRFVRADDILLSPCYQRDSCYINIIMYRPYGKDVPRERYWAAYEDIMKKVGGRPHWAKAHSCTRKDFEKMYPAFQKFCSIREKLDPSGMFLNTYLEKVFF
notes: as for B1
[10]
  Km: 10700 ± 2500 µM
  kcat: 2.9 ± 0.3 s⁻¹
[11]
  Km: 7100 ± 800 µM
  kcat: 8.0 ± 0.3 s⁻¹
[12]
  Km: 6900 ± 600 µM
  kcat: 3.9 ± 1.3 s⁻¹
